Data taken from patent US20220227882A1 (TRUSTEES OF TUFTS COLLEGE, published 2022).

T1: ADAM33 expressed in transiently transfected HEK293 cells (HEK293-ADAM33) (UniProt Q9BZ11 204-813)
T1 construct: whole, on cells; Expression in HEK293 cells is mainly intracellular; also called HEK293-A33; A33
T1 sequence (looked up): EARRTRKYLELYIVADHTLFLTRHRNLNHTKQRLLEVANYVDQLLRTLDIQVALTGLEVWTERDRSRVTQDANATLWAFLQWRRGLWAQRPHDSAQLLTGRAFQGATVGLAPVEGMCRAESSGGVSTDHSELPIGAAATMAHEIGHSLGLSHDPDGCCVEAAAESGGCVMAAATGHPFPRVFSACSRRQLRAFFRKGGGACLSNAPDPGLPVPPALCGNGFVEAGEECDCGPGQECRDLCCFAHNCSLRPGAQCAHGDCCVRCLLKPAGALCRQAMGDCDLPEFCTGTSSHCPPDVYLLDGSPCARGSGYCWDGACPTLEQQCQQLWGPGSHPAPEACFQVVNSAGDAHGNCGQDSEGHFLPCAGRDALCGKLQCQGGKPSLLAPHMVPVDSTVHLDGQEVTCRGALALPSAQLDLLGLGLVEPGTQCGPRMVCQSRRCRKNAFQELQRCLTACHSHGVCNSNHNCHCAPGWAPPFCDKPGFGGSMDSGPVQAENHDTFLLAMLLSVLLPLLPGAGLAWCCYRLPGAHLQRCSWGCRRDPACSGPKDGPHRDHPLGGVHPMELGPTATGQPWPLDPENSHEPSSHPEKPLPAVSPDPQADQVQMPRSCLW

T2: K458A (Homo sapiens, UniProt P78325)
T2 construct: expressed on HEK293 cells; also called human ADAM8 point mutant K458A
T2 sequence (ADAM8, looked up): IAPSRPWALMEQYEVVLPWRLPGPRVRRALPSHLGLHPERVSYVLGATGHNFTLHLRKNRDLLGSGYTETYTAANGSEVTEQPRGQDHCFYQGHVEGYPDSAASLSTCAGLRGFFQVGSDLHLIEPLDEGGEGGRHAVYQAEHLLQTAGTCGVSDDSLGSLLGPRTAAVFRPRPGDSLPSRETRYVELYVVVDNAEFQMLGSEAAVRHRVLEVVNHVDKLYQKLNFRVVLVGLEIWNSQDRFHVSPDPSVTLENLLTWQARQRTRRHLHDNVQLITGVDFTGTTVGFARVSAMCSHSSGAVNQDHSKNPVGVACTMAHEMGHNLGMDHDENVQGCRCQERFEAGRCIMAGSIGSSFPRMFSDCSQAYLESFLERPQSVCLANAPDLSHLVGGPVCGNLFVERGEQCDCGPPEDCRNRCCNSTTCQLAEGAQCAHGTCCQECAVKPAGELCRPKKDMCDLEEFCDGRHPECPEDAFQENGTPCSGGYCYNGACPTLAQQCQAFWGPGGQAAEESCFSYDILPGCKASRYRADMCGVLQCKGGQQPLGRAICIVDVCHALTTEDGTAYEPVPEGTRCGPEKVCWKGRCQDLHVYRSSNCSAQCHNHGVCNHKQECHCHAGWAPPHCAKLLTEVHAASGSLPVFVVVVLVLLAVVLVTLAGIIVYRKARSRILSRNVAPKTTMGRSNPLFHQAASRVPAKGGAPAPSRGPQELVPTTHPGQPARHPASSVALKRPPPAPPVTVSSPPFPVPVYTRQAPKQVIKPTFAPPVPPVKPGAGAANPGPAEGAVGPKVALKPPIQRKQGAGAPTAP

B1: ADP2 (antibody, V domains shown)
VH: EVKLVESGGGLVQPGGSLSLSCAASGFSFPDYYMSWVRQPPGKALEWLGFIRDSANGYTTEYIASVKGRFTFSRDNSQSILYLQMNALRAEDSATYYCARYSRYYGMDYWGQGTSVTVSS
VL: SIVMTQTPKILLVSAGDRVTITCKASQTVNYDVAWYQQKPGQSPKPVIYFASNRYTGVPDRFTGSGFGTDFTFTISTVQAEDLAVYFCQQDYSAPWTFGGGTKLEIK
notes: also called mADP2; mouse ADP2
B2: ADP13 (antibody, IgG1, V domains shown)
VH: EVQLQQSGPEMVKPGTSVKISCKASGYTFTDYYINWVKQSHGKSLEWIGDISPNIGGATYNPKFKGKAILTVDKSARTAYMELRSLTSEDSAVYCCTRGGSSYPYFYAMDYWGQGTSVTVSS
VL: DIVMSQSPSSLAVSVGEKVTMSCKSSQSLLYSSNQKKYLAWYQQKPGQSPKLLIYWASTRESGVPDRFTGSGSGTDFTLTISSVKAEDLAVYYCQQFYSYPYTFGGGTKLEINR
notes: also called mADP13; mouse ADP13
B3: ADP13 Fab (Fab, V domains shown)
VH: B2 VH
VL: B2 VL

What was measured:
[1] = target: T1, ADAM33 expressed in transiently …; assay: FACS, fixed and permeabilized HEK293-ADAM33 cells
Method: ADP2 and ADP13 were also tested for cross-reactivity to the ADAM8 related protein ADAM33 using a variation of the above FACS protocol, which included steps for cell fixation and permeabilization. FACS was performed as an ELISA assay was precluded due to the lack of commercially available recombinant ADAM33. Cell fixation and permeabilization steps were needed as ADAM33 expression in HEK293 cells is primarily intracellular. HEK293 cells were transiently transfected over a 48-hr period with an ADAM33 construct (Clone ID HsCD00419548, Harvard Plasmid Information Database) or a control EV DNA (Plasmid #25890, Addgene) using Lipofectamine® 2000. Single cell suspensions (1×10⁶ cells/ml) were prepared in FACS buffer. Cell samples (1 ml) were centrifuged, resuspended in 50 μL cold 4% paraformaldehyde and incubated for 20 minutes at 4° C. in the dark with occasional shaking. Cells were then washed once with 1 ml FACS buffer, and then twice with 0.1% saponin FACS buffer. Samples were exposed to primary antibodies in 50 μL of 0.1% saponin FACS buffer for 30 minutes at 4° C. For ADP2, ADP13 and their respective IgG2b and IgG1 isotype matched controls, 2 μg of antibody were used. […] After three washes in 0.1% saponin FACS buffer, cells were resuspended in 500 μL FACS buffer and analyzed on a BD FACSCalibur™ machine.

K458A = target: T2, K458A; assay: high-throughput flow cytometry, HEK293 cells with mutant ADAM8, high stringency; range in parentheses; closed box
Method: A variety of experimental parameters were optimized for high-throughput flow cytometry including blocking buffer, and primary and secondary antibody concentrations, to identify the optimal conditions for screening. Through these studies ADP2 and ADP13 were determined to be high affinity binding antibodies.
Thus, for these studies antigen-binding fragments (Fabs) of ADP2 and ADP13, which bind with lower affinity than the full antibody, were generated. In addition, higher binding stringency conditions were tested, such as increased pH, salinity, and temperature, and/or increased washing, to weaken binding sufficiently to allow identification of critical binding residues in flow cytometry. The final experimental flow cytometry conditions were: primary antibody incubation with ADP2 Fab (0.50 μg/ml), ADP13 Fab (5.00 μg/ml) and Control Ab (0.16 μg/ml) for 60 minutes in flow cytometry buffer containing 10% goat serum in PBS (Ca²⁺ and Mg²⁺ free). […] Samples were washed three times after primary antibody incubation and twice after secondary antibody incubation with PBS (Ca²⁺ and Mg′ free). Next, HEK293 cells expressing WT or mutated ADAM8 proteins or EV DNA were incubated with ADP2 or ADP13 Fabs or Control Ab at their optimal concentrations. Fab binding was detected using Alexa Fluor 488-conjugated secondary antibodies and mean cellular fluorescence determined using the Intellicyt iQue flow cytometry platform. […] This counter-screen strategy facilitates the exclusion of mutants that are locally misfolded or that have an expression defect. Binding of each test Fab to each mutant clone in the alanine scanning library was determined, in duplicate, by high-throughput flow cytometry.

Binder	binding result [1]	Binding Reactivity (% WT) (K458A)
B1	no binding (tested: 2 µg antibody per sample)	
B2	no binding (tested: 2 µg antibody per sample)	
B3		13.5 % WT
